Where a chain is given by its changes, count along the chain named.
Experiments:
hVISTA-Fc = hVISTA-Fc (Homo sapiens (Human)., UniProt Q9H7M9); assay: SPR
mVISTA-COMP-his = mVISTA-COMP-his (Mus musculus, UniProt Q9D659); assay: SPR
hVISTA-COMP-his [1] = target: T1, hVISTA-COMP-his (Homo sapiens, UniProt Q9H7M9); assay: SPR
hVISTA-COMP-his [2] = target: T1, hVISTA-COMP-his

Chain of mVISTA-COMP-his (Q9D659 whole entry, looked up, tested part not stated): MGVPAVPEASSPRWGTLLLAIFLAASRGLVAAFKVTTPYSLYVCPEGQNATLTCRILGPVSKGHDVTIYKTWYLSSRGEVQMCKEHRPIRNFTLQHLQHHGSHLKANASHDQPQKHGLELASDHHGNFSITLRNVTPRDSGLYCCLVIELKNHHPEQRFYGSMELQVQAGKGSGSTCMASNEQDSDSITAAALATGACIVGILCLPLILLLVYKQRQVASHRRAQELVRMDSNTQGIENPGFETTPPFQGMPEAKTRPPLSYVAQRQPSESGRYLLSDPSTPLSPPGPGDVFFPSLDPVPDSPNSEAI
Chain of hVISTA-Fc (Q9H7M9 33-194): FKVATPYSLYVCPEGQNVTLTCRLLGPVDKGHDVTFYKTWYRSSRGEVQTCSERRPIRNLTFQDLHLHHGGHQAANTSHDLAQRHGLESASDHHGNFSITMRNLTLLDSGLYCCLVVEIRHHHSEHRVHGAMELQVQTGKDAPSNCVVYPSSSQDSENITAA

B1: anti-hVISTA nanobody hVISTANb7 (VHH)
VHH: QVQLQESGGGLVYPGGSLRLSCTASGFAFTNAYMNWVRQAPGKGAEWVSGITRDSNRTSYADSVKGRFTISRDNAKNTLYLQMDSLKSDDTALYYCNAEPSGWWLDDDYWGQGTQVTVSS
**Q.** Which Kd (hVISTA-Fc) does the source give for B1 here?
**A.** The Kd was 7.5 nM.

B2: rat anti-hmVISTA mAb 7C7 (antibody, V domains shown)
VH: EVQLVESGGGLVQPGRSLKLSCVASGFTFNKYWMSWTRQAPGKGLEWVASITNSGGNTYYPDSVKGRFTISRDNAQNTLYLQMNSLRSEDTATYYCTLGVDYWGQGAMVTVSS
VL: DVVMTQTPPSLSVTIGQSVSISCKSSQSLVYSDGKTYLHWLLQSSGRSPKRLIYQVSNLASGVPDRFSGTGSQKDFTLKISRVEAKDLGVYYCAQTTHFPYTFGAGTKLEMK
**Q.** With B2 as the binder, how does the Kd (mVISTA-COMP-his) read?
**A.** The Kd was 51 nM.

**Q.** What about the Kd (hVISTA-COMP-his [1]) of the same binder?
**A.** The Kd was 49 nM.

B3: Nb3 [hVISTANb3] (VHH)
VHH: QVQLQESGGGLVHPGGSLRLSCAASGSVGTIFSMGWFRQAPGVQREMVATITNSGETNYAAFVKGRFTITRDNAQNTVYLQMNSLKPEDTAAYYCNAFDYVGGRTYELPYWGQGTQVTVSS
**Q.** Does B3 bind (hVISTA-COMP-his [2])?
**A.** Result: binds

B4: anti-hVISTA nanobody hVISTANb1 (VHH)
VHH: B3 VHH with H13Q, T70S, Q75E
**Q.** B4 was tested. Which Kd (hVISTA-Fc) did it give?
**A.** The Kd was 11 nM.

B5: Nb6 [hVISTANb6] (VHH)
VHH: B3 VHH with V28G, G29V, T70S, T77A
**Q.** Does B5 bind (hVISTA-COMP-his [2])?
**A.** Result: binds

B6: Nb2 [hVISTANb2] (VHH)
VHH: B3 VHH with T70S, Q75E, V78M, Q81E, S84D
**Q.** Does B6 bind (hVISTA-COMP-his [2])?
**A.** Result: binds

B7: murine anti-hVISTA mAb 7G5 (antibody, V domains shown)
VH: QIQLVQSGPELKKPGETVKISCKASGYTFTNYGMNWVKQAPEKGLKWMGWINTYTGEPTYADDFKGRFAFSLETSASTAYLQINNLKNEDTATYFCARRSNPWPNDYWGQGTSLTVSS
VL: DIQMTQSPSSFSASLGERVSLTCRASQEISGYLSWLQQKPDGTIKRLIYAASTLDSGVPKRFSGSRSGSDYSLTISSLESEDFADYYCLQYASYPWTFGGGTKLEIK
**Q.** Does B7 bind (mVISTA-COMP-his)?
**A.** Result: no binding

**Q.** And the Kd (hVISTA-COMP-his [1])?
**A.** The Kd was 0.14 nM.

B8: murine anti-hVISTA mAb 7E12 (antibody, V domains shown)
VH: DVHLQESGPGLVKPSQSLSLTCSVTGYSITSGYYWNWIRQFPGNKLEWMGYISYDGNNNYNPSLKNRISITRDTSKNQFFLKLNSVTTEDTATYYCARGDYGSEAMDYWGQGTSVTVSS
VL: DIRVTQSPASLAVSLGQRATISCRASKSVSTSGYSYMNWYQQKPGQPPQLLIYLASNLESGVPARFSGSGSGTDFTLNIHPVEEEDAAIYYCQHSRELPWTFGGGTKLEIK
**Q.** Does B8 bind (mVISTA-COMP-his)?
**A.** Result: no binding

**Q.** And the Kd (hVISTA-COMP-his [1])?
**A.** The Kd was 0.44 nM.

Source: article PMC8632329 (mAbs, 2021)
